The record followed here is article PMC6542541, “Broadly neutralizing antibodies from an individual that naturally cleared multiple hepatitis C virus infections uncover molecular determinants for E2 targeting and vaccine design” (PLoS Pathogens, 2019).

Common to all, as to assay: global alanine scanning epitope mapping
One test has as its target HMAb CBH-7. To be noted: antibody at 1 μg/ml.
The target of the next test is HMAb HC-11. As to conditions: antibody at 1 μg/ml.
In the next test the target is HMAb 212.1.1. As to conditions: antibody at 2 μg/ml.
For another test, the target named is HMAb CBH-5. As to conditions: antibody at 1 μg/ml.
The next test has as its target HC-1. To be noted: antibody at 1 μg/ml.
Another test concerns the target HC84.26. As to conditions: antibody at 1 μg/ml.

As for “H77C 1a recombinant E1E2 (from UniProt P27958) F442A”, the percent of parent with HMAb CBH-7 stood at 113 % WT; with HMAb HC-11, 1 % WT; with HMAb 212.1.1, 148 % WT; in the test with HMAb CBH-5, 1 % WT.

Regarding “H77C 1a recombinant E1E2 (from UniProt P27958) D535A”, the percent of parent with HMAb CBH-7 was found to be 116 % WT; in the test with HMAb HC-11, 1 % WT; with HC-1 it was 14 % WT; with HMAb 212.1.1, 6 % WT; with HMAb CBH-5 it was 0 % WT.

Regarding “H77C 1a recombinant E1E2 (from UniProt P27958) G436A”, the percent of parent with HMAb CBH-7 is 78 % WT; in the test with HMAb HC-11, 0 % WT; in the test with HC-1, 73 % WT; with HMAb 212.1.1 it was 103 % WT; with HMAb CBH-5, 11 % WT.

Regarding “H77C 1a recombinant E1E2 (from UniProt P27958) L441A”, the percent of parent came to 100 % WT in the test with HMAb CBH-7; 12 % WT in the test with HC84.26; 75 % WT with HMAb HC-11; 85 % WT in the test with HC-1; 92 % WT with HMAb 212.1.1; 0 % WT in the test with HMAb CBH-5.

For “H77C 1a recombinant E1E2 (from UniProt P27958) E431A”, the percent of parent with HMAb CBH-7 was determined as 101 % WT; with HC84.26, 105 % WT; in the test with HMAb HC-11, 64 % WT; with HC-1, 97 % WT; with HMAb 212.1.1 it was 147 % WT; with HMAb CBH-5 it was 224 % WT.

On to “H77C 1a recombinant E1E2 (from UniProt P27958) R639A”, for which the percent of parent with HMAb CBH-7 came to 86 % WT; with HC84.26 it was 87 % WT; with HMAb HC-11 it was 76 % WT; with HC-1, 100 % WT; with HMAb 212.1.1, 88 % WT; in the test with HMAb CBH-5 it was 48 % WT.

Take “H77C 1a recombinant E1E2 (from UniProt P27958) P545A”: the percent of parent was 42 % WT with HMAb CBH-7; 69 % WT in the test with HC84.26; 42 % WT in the test with HMAb HC-11; 78 % WT with HC-1; 70 % WT in the test with HMAb 212.1.1; 42 % WT with HMAb CBH-5.

For the substance “H77C 1a recombinant E1E2 (from UniProt P27958) C429A”, the percent of parent with HMAb CBH-7 was 157 % WT; with HC84.26, 24 % WT; with HMAb HC-11, 0 % WT; with HC-1, 0 % WT; with HMAb 212.1.1 it was 0 % WT; with HMAb CBH-5, 2 % WT.

Take “H77C 1a recombinant E1E2 (from UniProt P27958) V636A”: the percent of parent with HC84.26 amounted to 72 % WT; in the test with HMAb HC-11 it was 63 % WT; with HC-1, 89 % WT; with HMAb 212.1.1, 77 % WT; with HMAb CBH-5, 34 % WT.

“H77C 1a recombinant E1E2 (from UniProt P27958) S424A”: the percent of parent with HMAb CBH-7 was 163 % WT; with HC84.26 it was 75 % WT; with HMAb HC-11 it was 18 % WT; with HC-1, 53 % WT; in the test with HMAb 212.1.1 it was 41 % WT; with HMAb CBH-5, 10 % WT.

As for “H77C 1a recombinant E1E2 (from UniProt P27958) W549A”, the percent of parent with HMAb CBH-7 came to 5 % WT; with HMAb HC-11, 50 % WT; in the test with HMAb 212.1.1, 66 % WT; with HMAb CBH-5, 46 % WT.

For “H77C 1a recombinant E1E2 (from UniProt P27958) D533A”, the percent of parent with HMAb CBH-7 came out at 77 % WT; in the test with HC84.26, 93 % WT; with HMAb HC-11 it was 66 % WT; with HC-1, 73 % WT; with HMAb 212.1.1, 99 % WT; with HMAb CBH-5, 54 % WT.

Consider “H77C 1a recombinant E1E2 (from UniProt P27958) G530A”, for which the percent of parent with HC84.26 amounted to 71 % WT; with HMAb HC-11 it was 3 % WT; with HC-1 it was 14 % WT; in the test with HMAb 212.1.1 it was 9 % WT; in the test with HMAb CBH-5, 76 % WT.

Regarding “H77C 1a recombinant E1E2 (from UniProt P27958) W529A”, the percent of parent with HMAb CBH-7 was 187 % WT; in the test with HC84.26, 122 % WT; with HMAb HC-11 it was 23 % WT; with HC-1, 0 % WT; with HMAb 212.1.1, 9 % WT; in the test with HMAb CBH-5 it was 35 % WT.

For the substance “H77C 1a recombinant E1E2 (from UniProt P27958) T425A”, the percent of parent in the test with HMAb CBH-7 was found to be 101 % WT; in the test with HC84.26, 69 % WT; with HMAb HC-11, 10 % WT; with HC-1, 51 % WT; in the test with HMAb 212.1.1, 18 % WT; with HMAb CBH-5, 1 % WT.

On to “H77C 1a recombinant E1E2 (from UniProt P27958) N434A”, for which the percent of parent in the test with HC84.26 came to 97 % WT; with HMAb HC-11 it was 88 % WT; with HC-1 it was 102 % WT; with HMAb 212.1.1, 18 % WT; with HMAb CBH-5, 92 % WT.

Turning to “H77C 1a recombinant E1E2 (from UniProt P27958) A439G”, the percent of parent with HC84.26 was determined as 108 % WT; with HC-1, 83 % WT; with HMAb 212.1.1, 84 % WT; with HMAb CBH-5 it was 53 % WT.

Consider “H77C 1a recombinant E1E2 (from UniProt P27958) P544A”, for which the percent of parent with HMAb CBH-7 amounted to 39 % WT; with HMAb HC-11, 41 % WT; in the test with HMAb 212.1.1 it was 72 % WT; in the test with HMAb CBH-5 it was 45 % WT.

Regarding “H77C 1a recombinant E1E2 (from UniProt P27958) S432A”, the percent of parent was found to be 104 % WT with HMAb CBH-7; 102 % WT with HC84.26; 57 % WT with HMAb HC-11; 108 % WT with HMAb 212.1.1; 73 % WT in the test with HMAb CBH-5.

In the case of “H77C 1a recombinant E1E2 (from UniProt P27958) N430A”, the percent of parent turned out to be 155 % WT with HMAb CBH-7, 85 % WT with HC84.26, 39 % WT with HC-1 and 143 % WT with HMAb 212.1.1.

In the case of “H77C 1a recombinant E1E2 (from UniProt P27958) E637A”, the percent of parent with HMAb CBH-7 is 145 % WT; with HMAb HC-11, 202 % WT; with HC-1 it was 246 % WT; in the test with HMAb CBH-5, 40 % WT.

With “H77C 1a recombinant E1E2 (from UniProt P27958) W437A”, the percent of parent with HC84.26 turned out to be 98 % WT; in the test with HMAb HC-11, 0 % WT; with HC-1 it was 67 % WT; in the test with HMAb 212.1.1 it was 58 % WT; in the test with HMAb CBH-5, 3 % WT.

Regarding “H77C 1a recombinant E1E2 (from UniProt P27958) G547A”, the percent of parent with HMAb CBH-7 was 28 % WT; in the test with HMAb HC-11, 36 % WT; in the test with HMAb 212.1.1 it was 57 % WT; with HMAb CBH-5, 30 % WT.

For “H77C 1a recombinant E1E2 (from UniProt P27958) N548A”, the percent of parent in the test with HC84.26 came to 85 % WT; with HMAb HC-11 it was 70 % WT; with HC-1, 88 % WT; with HMAb CBH-5 it was 51 % WT.

Take “H77C 1a recombinant E1E2 (from UniProt P27958) G440A”: the percent of parent with HMAb CBH-7 stood at 77 % WT; with HC84.26, 82 % WT; with HC-1 it was 73 % WT; in the test with HMAb 212.1.1, 83 % WT; with HMAb CBH-5 it was 86 % WT.
